# Measured values from PMC8602850, “SARS-CoV-2 Exacerbates COVID-19 Pathology Through Activation of the Complement and Kinin Systems” (Frontiers in Immunology, 2021).
# B1: gC1qR, wild type, mature recombinant (receptor for the globular heads of C1q) (receptor, UniProt Q07021 74-282, looked up)
# chain: LHTDGDKAFVDFLSDEIKEERKIQKHKTLPKMSGGWELELNGTEAKLVRKVAGEKITVTFNINNSIPPTFDGEEEPSQGQKVEEQEPELTSTPNFVVEVIKNDDGKKALVLDCHYPEDEVGQEDEAESDIFSIREVSFQSTGESEWKDTNYTLNTDSLDWALYDHLMDFLADRGVDNTFADELVELSTALEHQEYITFLEDLKSFVKSQ
# modifications: biotin (biotinylated gC1qR in the ELISA; not said for the SPR surface)
# notes: also called gC1qR-WT; biotinylated gC1qR
# B2: synthetic peptide corresponding to the gC1qR-binding region from HK (peptide)
# chain: HKHGHGHGKHKNKGKKNGKH
# Columns and labels:
# [1] = biological target: T1, SARS-CoV-2 nucleocapsid (N) protein, recombinant (SARS-CoV-2, UniProt P0DTC9 1-419); assay: SPR; gC1qR-WT or gC1qR-ΔΔ immobilised; two-fold dilution series of analyte injected; reference-corrected sensorgrams fit to kinetic models; apparent KD; settings: both partners purified
# T1 construct: also called Nucleocapsid protein
# [2] = biological target: B1; assay: as above; settings: both partners purified
Binder,Kd [1] [µM],Kd [2] [µM]
B1,6,–
B2,–,2000
